According to CN110606891A (L&L BIOPHARMA CO LTD, dated 2019):

T1: 人CLDN18.1 (hCLDN18.1), claudin-18 isoform 1 precursor [Homo sapiens], NP_057453.1 (human, UniProt P56856 1-261)
T1 construct: No signal peptide limits stated for this entry; also called 人CLDN18.1+ 细胞; hCLDN18.1+ cell
T1 sequence: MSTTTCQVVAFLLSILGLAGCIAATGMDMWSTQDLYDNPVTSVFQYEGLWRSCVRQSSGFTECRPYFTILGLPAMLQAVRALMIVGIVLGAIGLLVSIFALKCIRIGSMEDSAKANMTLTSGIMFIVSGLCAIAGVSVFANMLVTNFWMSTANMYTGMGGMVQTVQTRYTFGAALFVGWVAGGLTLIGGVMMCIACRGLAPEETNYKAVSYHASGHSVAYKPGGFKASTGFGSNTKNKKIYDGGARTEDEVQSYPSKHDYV

T2: 鼠CLDN18.2 (mCLDN18.2), claudin-18 isoform A2.1 [Mus musculus], NP_001181850.1 (mouse, UniProt P56857 10-264)
T2 construct: also called 鼠CLDN18.2+细胞; mCLDN18.2+ cell
T2 chain: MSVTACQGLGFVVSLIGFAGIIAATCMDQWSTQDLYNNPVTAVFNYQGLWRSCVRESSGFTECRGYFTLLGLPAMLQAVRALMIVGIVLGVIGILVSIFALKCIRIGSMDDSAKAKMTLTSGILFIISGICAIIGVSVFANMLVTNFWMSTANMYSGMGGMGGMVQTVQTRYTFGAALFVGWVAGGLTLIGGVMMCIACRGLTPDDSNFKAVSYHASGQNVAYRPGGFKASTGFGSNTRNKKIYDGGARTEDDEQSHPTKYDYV

T3: 鼠CLDN18.1 (mCLDN18.1), claudin-18 isoform A1.1 precursor, NP_062789.1 (mouse, UniProt P56857 1-264)
T3 construct: also called 鼠CLDN18.1+ 细胞; mCLDN18.1+ cell
T3 sequence: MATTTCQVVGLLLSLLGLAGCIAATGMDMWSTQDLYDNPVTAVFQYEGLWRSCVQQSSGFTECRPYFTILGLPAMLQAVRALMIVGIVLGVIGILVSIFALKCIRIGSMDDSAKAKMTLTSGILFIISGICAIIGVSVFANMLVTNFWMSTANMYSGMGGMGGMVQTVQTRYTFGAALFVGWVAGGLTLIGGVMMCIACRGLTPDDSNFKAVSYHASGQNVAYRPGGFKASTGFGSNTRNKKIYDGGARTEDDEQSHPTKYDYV


Key:
[1] = molecular target: T4, 人CLDN18.2 (hCLDN18.2), claudin-18 isoform 2 [Homo sapiens], NP_001002026.1 (human); experiment: cell-based or functional assay
[2] = molecular target: T1, 人CLDN18.1 (hCLDN18.1), claudin-18 …; experiment: cell ELISA, hybridoma supernatant on hCLDN18.1+ cells
[3] = molecular target: T4, 人CLDN18.2 (hCLDN18.2), claudin-18 …; experiment: cell ELISA, hybridoma supernatant on hCLDN18.2+ cells
[4] = molecular target: T2, 鼠CLDN18.2 (mCLDN18.2), claudin-18 …; experiment: cell ELISA on mCLDN18.2+ cells (Table 23)
[5] = molecular target: T2, 鼠CLDN18.2 (mCLDN18.2), claudin-18 …; experiment: cell ELISA on mCLDN18.2+ cells, against Ref
[6] = molecular target: T2, 鼠CLDN18.2 (mCLDN18.2), claudin-18 …; experiment: cell ELISA on mCLDN18.2+ cells
[7] = molecular target: T4, 人CLDN18.2 (hCLDN18.2), claudin-18 …; experiment: cell ELISA on hCLDN18.2+ cells (Table 16a)
[8] = molecular target: T3, 鼠CLDN18.1 (mCLDN18.1), claudin-18 …; experiment: cell ELISA on mCLDN18.1+ cells
[9] = molecular target: T1, 人CLDN18.1 (hCLDN18.1), claudin-18 …; experiment: cell ELISA on hCLDN18.1+ cells

Row | Binder | CDC EC50 (人血清补体对hCLDN18.2+细胞, LDH) [1] | 结合活性 (ELISA) [2] | 结合活性 (ELISA) [3] | EC50 [4] | Emax [4] | binding result [8] | further results
1 | Ab66 (L21, H61, hIgG1 Fc S239D/A330L/I332E) (antibody) heavy: QVQLVQSGAEVKKPGSSVKVSCKASGYAFSNYLIEWVRQAPGQGLEWMGLINPGSGGTNYNEKFKGKVTITADKSTSTAYMELSSLRSEDTAVYYCARVYYGNTFAYWGQGTLVTVSSASTKGPSVFPLAPSSKSTSGGTAALGCLVKDYFPEPVTVSWNSGALTSGVHTFPAVLQSSGLYSLSSVVTVPSSSLGTQTYICNVNHKPSNTKVDKKVEPKSCDKTHTCPPCPAPELLGGPDVFLFPPKPKDTLMISRTPEVTCVVVDVSHEDPEVKFNWYVDGVEVHNAKTKPREEQYNSTYRVVSVLTVLHQDWLNGKEYKCKVSNKALPLPEEKTISKAKGQPREPQVYTLPPSRDELTKNQVSLTCLVKGFYPSDIAVEWESNGQPENNYKTTPPVLDSDGSFFLYSKLTVDKSRWQQGNVFSCSVMHEALHNHYTQKSLSLSPGK light: not shown | 0.927 µg/mL | – | – | – | – | – | –
2 | Ab60 (L12, H51, hIgG1 Fc S239D/A330L/I332E) (antibody) heavy: QVQLVQSGAEVKKPGSSVKVSCKASGYAFSNYLIEWVKQAPGQGLEWIGLINPGSGGTNYNEKFKGKATITADKSTSTAYMELSSLRSEDTAVYYCARVYYGNSFAYWGQGTLVTVSSASTKGPSVFPLAPSSKSTSGGTAALGCLVKDYFPEPVTVSWNSGALTSGVHTFPAVLQSSGLYSLSSVVTVPSSSLGTQTYICNVNHKPSNTKVDKKVEPKSCDKTHTCPPCPAPELLGGPDVFLFPPKPKDTLMISRTPEVTCVVVDVSHEDPEVKFNWYVDGVEVHNAKTKPREEQYNSTYRVVSVLTVLHQDWLNGKEYKCKVSNKALPLPEEKTISKAKGQPREPQVYTLPPSRDELTKNQVSLTCLVKGFYPSDIAVEWESNGQPENNYKTTPPVLDSDGSFFLYSKLTVDKSRWQQGNVFSCSVMHEALHNHYTQKSLSLSPGK light: not shown | 0.973 µg/mL | – | – | – | – | – | ADCC EC50 (PBMC对hCLDN18.2+细胞, LDH) [1]: 0.431 µg/mL
3 | mab1 (初始杂交瘤克隆 F2A4, 上清) (antibody, V domains shown) VH: EVQLLESGGGLVQPGGSLRLSCAASGFTFSSYGMGWVRQAPGKGLEWVAAITRDSSTNYGAAVKGRATISRDNSKNTLYLQMNSLRAEDTAVYYCAKDASNGYCWYTGRGSYSCGAHHIDAWGQGTLVTVSS VL: SYELTQPPSVSVSPGQTARITCSGGYNGHYGWYQQKPGQAPVTVIYSNNQRPSGIPERFSGSSSGTTVTLTISGVQAEDEADYYCGGYDSSAGIFGGGTKLTVL | – | 1.19 | 1.62 | – | – | – | –
4 | anti-hCLDN18.2抗体mab5b (重组表达) (antibody, human IgG1, kappa, V domains shown, also called 鼠源抗体mab5b) VH: QVQLQQSGAELIGPGTSVKVSCKASGYAFSNYLIEWVKQRPEQGLEWIGLINPGSGGTNYNEKFKGKATLTADKSSSTAYMQLSSLTSDDSAVYFCARVYYGNSFAYWGQGTLVTVSA VL: DIVMTQSPSSLTVTAGEKVTMSCKSSQSLLNSGNQKNYLTWYQQKPGQPPKLLIYWASTRESGVPDRFTGSGSGTHFTLTISSVQAEDLAVYYCQNDYFYPFTFGSGTKLEKKR | – | – | – | 0.375 nM | 2.17 | – | 结合活性 (EC50) 比Ref好的倍数 [5]: > 4 倍; EC50 [6]: 0.182 nM
5 | Ab22 (轻链CDR1 NS-> TS, 重链 CDR3 NS-> NT) (antibody, V domains shown) VH: EVMLVESGGGLVKPGGSLKLSCAASGFTFSSYTMSWVRQTPEKRLEWVATIIGGYGNTYYADSVKGRFTISRDSAKNTLYLQMISLRSEDTALYYCTRLGQTQRNAMDYWGQGTSVTVSS VL: DILMTQSPSSLSVSAGEKVTMSCKSSQSLLNSGNQKNYLAWYQQKPGQPPKLLIYGASTRESGVPDTFTGSGSGTDFTLTISSVQAEDLAVYYCQNDYYYPFTFGAGTKLEL | – | – | – | – | – | – | EC50 [7]: 1.37 nM
6 | mab2 (初始杂交瘤克隆 F6B1, 上清) (antibody, V domains shown) VH: EVQLLESGGGLVQPGGSLRLSCAASGFTFSSYGMSWVRQAPGKGLEWVAGIGSSGSDTWYADSVKGRFTISRDNSKNTLYLQMNSLRAEDTAVYYCAKDATNGYCWYTGRGSYSCGAHHIDAWGQGTLVTVSS VL: SYELTQPPSVSVSPGQTARITCSGGSGSYGYYGWYQQKPGQAPVTVIYGTNKRPSGIPERFSGSSSGTTVTLTISGVQAEDEADYYCGGYDSSAGIFGGGTKLTVL | – | 0.123 | 0.176 | – | – | – | –

The next lines start with results.

Row | CDC EC50 (人血清补体对hCLDN18.2+细胞, LDH) [1] | 结合活性 (ELISA) [2] | 结合活性 (ELISA) [3] | EC50 [4] | Emax [4] | binding result [8] | Binder | further results
7 | – | 0.448 | 0.671 | – | – | – | mab3 (初始杂交瘤克隆 C6F9, 上清) (antibody, V domains shown) VH: EVQLLESGGGLVQPGGSLRLSCAASGFTFRSYAMMWVRQAPGKGLEWVGEISSTGGSTYYGSAVKGRATISRDNSKNTLYLQMNSLRAEDTAVYYCAKSTYGATWKSADSIDAWGQGTLVTVSS VL: SYELTQPPSVSVSPGQTARITCSGGYNGHYGWYQQKPGQAPVLVIYSNNQRPSGIPERFSGSSSGTTVTLTISGVQAEDEADYYCGGYDSSAGIFGGGTKLTVL | –
8 | 1.75 µg/mL | – | – | 0.518 nM | 2.18 | no binding | Ab36抗体 (antibody, human IgG1, kappa, V domains shown, Ab6 with NS->NT in light CDR1 and heavy CDR3; hIgG1 / kappa) VH: QVQLVQSGAEVKKPGSSVKVSCKASGYAFSNYLIEWVKQAPGQGLEWIGLINPGSGGTNYNEKFKGKATITADKSTSTAYMELSSLRSEDTAVYYCARVYYGNTFAYWGQGTLVTVSS VL: DIVMTQSPDSLAVSLGERATISCKSSQSLLNTGNNKNYLAWYQQKPGQPPKLLIYWASTRESGVPDRFSGSGSGTDFTLTISSLQAEDVAVYYCQNDYFYPFTFGQGTKLEIKR | –
9 | 2.12 µg/mL | – | – | 0.474 nM | 1.91 | no binding | Ab51抗体 (antibody, human IgG1, kappa, V domains shown, hIgG1 (DEL) / kappa; also called L21/H64 DEL) VH: QVQLVQSGAEVKKPGSSVKVSCKASGYAFSNYLIEWVRQAPGQGLEWMGLINPGSGGTNYNEKFKGRVTITADESTSTAYMELSSLRSEDTAVYYCARVYYGNTFAYWGQGTLVTVSS VL: DIVMTQSPDSLAVSLGERATINCKSSQSLLNTGNNKNYLAWYQQKPGQPPKLLIYWASTRESGVPDRFSGSGSGTDFTLTISSLQAEDVAVYYCQNDYFYPFTFGQGTKLEIKR | –
10 | – | – | – | 0.371 nM | 2.27 | no binding | 人源化Ab10抗体 (antibody, human IgG1, kappa, V domains shown, Humanized, hIgG1 (356-358 DEL) / kappa; also called L14/H51) VH: QVQLVQSGAEVKKPGSSVKVSCKASGYAFSNYLIEWVKQAPGQGLEWIGLINPGSGGTNYNEKFKGKATITADKSTSTAYMELSSLRSEDTAVYYCARVYYGNSFAYWGQGTLVTVSS VL: DIVMTQSPDSLAVSLGERATISCKSSQSLLNSGNQKNYLTWYQQKPGQPPKLLIYWASTRESGVPDRFSGSGSGTDFTLTISSLQAEDVAVYYCQNDYFYPFTFGQGTKLEIKR | binding result [9]: no binding
